Test results taken from the RNAGym collection of RNA variant scans (doi:10.7554/elife.80360).

B1: Hairpin Ribozyme (parent)
chain: GUCCUCUUUCACGUGCGCGUGAAAGAGAGAAGUGAACCAGAGAAACACACGUUGUGGUAUAUUACCUGGUA

Variants of: B1
Test: self-cleavage, relative activity (ratio to wild type); higher = more cleavage; co-transcriptional

Variant	self-cleavage
U2C U67C	0.0838
U2C A61C	0.0902
U2C G57C	0.242
U2G C48U	0.117
C3A A11G	0.686
C3A A11C	0.618
U2C U14C	0.359
U2G C65A	0.402
U2G C65U	0.163
U2C A49U	0.141
U2C A44G	0.275
U2C A44C	0.0731
U2G U63A	0.149
U2C A39U	0.249
U2C U63G	0
U2C U63C	0.109
U2G G29A	0.168
U2G U70G	0.244
U2G U70C	0.12
U2C C48A	0.0257
U2C A36U	0.207
U2C A36C	0.17
U2C C50U	0.252
U2C U60G	0.226

Variant	self-cleavage
U2C U60A	0.312
U2C U60C	0.222
U2C U33G	0.0942
U2C U33C	0.223
U2G C46A	0.121
U2C G32A	0.138
U2C G32C	0.174
U2C G19U	0.161
U2G C50U	0.157
U2G C50G	0.1
U2C G29U	0.0528
U2C G29C	0.16
U2G G17C	0.367
U2G A45U	0.0683
U2G A45C	0.0592
U2C A41C	0.0362
U2G C4U	0.15
U2G C4A	0.242
U2C U70C	0.16
U2C U70G	0.269
U2G A31G	0.281
U2G A31C	0.0758
U2G A31U	0
U2C G15C	0.243

Variant	self-cleavage
U2G U33A	0.115
U2G A64U	0.0768
U2C A35G	0.243
U2C A35U	0.259
U2C A24G	0.154
C3A A49G	0.426
U2A U60G	0.222
U2G U60G	0.278
U2G A24U	0.238
U2G A24C	0.293
U2G A24G	0.293
U2C U55G	0.0647
U2C U55C	0.0641
U2G G13A	0.338
U2G G69C	0.0755
U2C G42A	0.0595
U2G G51A	0.306
U2G G51U	0.389
C3A A47C	0.239
U2C U53C	0.0859
U2C U53G	0.0768
U2C G25A	0.195
U2C G25U	0.134
U2C C37A	0.0991

Variant	self-cleavage
U2G U8A	0.295
U2G A39C	0.177
U2G G40A	0.105
U2G A23U	0.265
U2C G17C	0.168
U2C G17A	0.15
C3A A43G	0.143
C3A A23C	0.484
C3A A23U	0.619
C3A A61C	0.16
U2G G27A	0.139
U2G G27U	0.172
U2G C16A	0.398
U2G U7A	0.255
U2G U7G	0.35
U2G U7C	0.384
U2G A30G	0.0671
U2C A59U	0.108
U2G G19U	0.336
U2G U9C	0.231
U2C G13C	0.121
U2C G13U	0.121
C3A C6A	0.484
U2C U8A	0.191

Variant	self-cleavage
U2C U8G	0.118
U2G C37A	0.131
U2G C37U	0.319
U2G A41C	0.566
U2G U67A	0.139
U2C A23C	0.144
U2C C18A	0.118
U2C C18G	0.154
U2C G54C	0.127
U2C C10U	0.159
U2C C10G	0.118
U2C C10A	0.117
U2C G27C	0.153
U2C A22C	0.161
U2G A59U	0.0332
U2G A59C	0.223
U2C G51U	0.172
U2G A35U	0.27
U2A U62G	0.088
U2G U53C	0.575
U2C A45U	0.0729
U2C U5C	0.0555
U2C U5G	0.0932
U2G U58C	0.384

Variant	self-cleavage
C3A A44C	0.123
U2C G34U	0.316
U2C G34C	0.208
U2C C38G	0.157
U2G G57C	0.117
U2C G40U	0.103
U2C A30G	0.349
U2C A43U	0.177
U2C A43C	0.0996
U2G G54A	0.114
U2C C66G	0.0316
U2C C66A	0.0248
U2G G34C	0.736
U2G U5G	0.0759
U2G C3U	0.181
U2C C16U	0.163
U2G C12G	0.184
U2G A44G	0.0352
U2C U58C	0.175
U2C U9A	0.109
U2C U9G	0.0171
U2C U9C	0.139
U2G U14G	0.322
U2G A71G	0.307

Variant	self-cleavage
U2G G21A	0.265
U2C G56U	0.178
U2C C46U	0.133
U2G A49U	0.053
U2C U62C	0.203
C3A A24G	0.704
U2C G21U	0.185
U2C G21C	0.213
U2G U55A	0.195
U2G U55G	0.367
U2G A26G	0.277
U2G A47U	0.0492
U2G G42A	0.0588
C3A A35C	1.15
U2C G68U	0.161
U2G A36G	0.274
U2G A36C	0.208
U2C A11G	0.172
U2G A22G	0.264
U2G A22C	0.354
U2C C65A	0.195
U2G C66G	0.124
U2C A64G	0.123
